Measured values from publication PMC7375816.

Target: Yeast Hsp90 wild-type FRET hetero-dimer (donor 61C + biotinylated acceptor 385C) (yeast | D. melanogaster)

increase in ATPase activity of Hsp90 in the presence of 3 µM Aha1, normalised to the activity without Aha1: 17 fold
B1: cochaperone Aha1 (natural protein)
chain: MVVNNPNNWHWVDKNCIGWAKEYFKQKLVGVEAGSVKDKKYAKIKSVSSIEGDCEVNQRKGKVISLFDLKITVLIEGHVDSKDGSALPFEGSINVPEVAFDSEASSYQFDISIFKETSELSEAKPLIRSELLPKLRQIFQQFGKDLLATHGNDIQVPESQVKSNYTRGNQKSSFTEIKDSASKPKKNALPSSTSTSAPVSSTNKVPQNGSGNSTSIYLEPTFNVPSSELYETFLDKQRILAWTRSAQFFNSGPKLETKEKFELFGGNVISELVSCEKDKKLVFHWKLKDWSAPFNSTIEMTFHESQEFHETKLQVKWTGIPVGEEDRVRANFEEYYVRSIKLTFGFGAVL
